Sequences and labels used below:
B1: HDV Ribozyme (parent)
chain: GGCCGGCAUGGUCCCAGCCUCCUCGCUGGCGCCGGCUGGGCAACAUUCCGAGGGGACCGUCCCCUCGGUAAUGGCGAAUGGGACCCA

The series covers variants of B1. Put plainly: self-cleavage, relative activity (ratio to wild type); higher = more cleavage; co-transcriptional.
In the case of U20A U72C, the self-cleavage came out at 0.0723. Next, U72G G74U: 0.264; C18U U20G: 0.277. The result for C49G C63G reads 0.475; that for G40U C44G, 0.194. On to U20G C63G, for which the self-cleavage amounted to 0.104. The result for A71C G81U reads 0.17; that for C48U G74A, 0.517. The result for C21A G25C reads 0; that for G50U U65C, 0.791. The result for U69C C84A reads 1.09; that for G40U U79G, 0.243. As to U46C C49A, the self-cleavage turned out to be 0.54. Next, C13G C85U: 0; A51U U69A: 0.95.

In the case of C4U, the self-cleavage amounted to 0.758. The result for U9C A71G reads 0.997. Next, C3A C58A: 0.609.

Take G2U U65G: the self-cleavage stood at 0.0782.

As to G40C A78G, the self-cleavage was 0.318. The result for C13U G50C reads 0.636; that for G55A A56C, 0.895. The result for G28A U37G reads 0; that for C15U C62G, 0.851. The result for C4G G17U reads 0. In the case of C15U G81A, the self-cleavage was 0.554. The result for C36G U69G reads 0.0554; that for A45C U47C, 0.598; that for G54C C86A, 0.962. Next, U12A C14A: 0.0504. Turning to C7A G67A, the self-cleavage is 0.315. Next, C30G A43C: 0.0489; G74A: 0.478. The result for G55A U72G reads 0.415. The result for A45G C58A reads 1.18; that for G34A C62G, 0.13. On to G1U A78G, for which the self-cleavage was found to be 0.346. The result for A56C G82C reads 0.306; that for A43U A70G, 1.05; that for A51G A87G, 1.

As for G38U C63U, the self-cleavage came out at 0.24.

Turning to C13A G82U, the self-cleavage is 0.904. Turning to G50U C63G, the self-cleavage amounted to 0.332. The result for A8U A16U reads 0.962.

Consider G29C A43C, for which the self-cleavage amounted to 0.0489. Next, C15A G17A: 0.302; C4G A77U: 0.0354; A42C U65G: 0.831. Next, C66G G74C: 0.199; G2U C4U: 0.0755; U60C C85U: 0.989. Next, C66U C85G: 0.923. For the variant C21U A43C, the self-cleavage worked out at 0.0545.

For U23G A83C, the self-cleavage turned out to be 0. As to G5C A42G, the self-cleavage came to 0.

G10A U27G: the self-cleavage was 0.98.

With G50U A71U, the self-cleavage came to 1.02. Consider G25U G34C, for which the self-cleavage stood at 0.0396. Next, U69G A70U: 0.95; A16G C30A: 0.702. Consider C30U A70G, for which the self-cleavage worked out at 0.8.

G17A C19A: the self-cleavage was determined as 0.142. For the variant U12A G52U, the self-cleavage turned out to be 0.604. As for A42C A56C, the self-cleavage worked out at 0.356. Next, G53U G68A: 0.903.

In the case of U46G C62G, the self-cleavage amounted to 0.0755. Next, G40C U69G: 0.361; C33U C61A: 0.721. Regarding G39A C66U, the self-cleavage is 0.472. For the variant C26G C48A, the self-cleavage came to 0.973. Next, U9C G38A: 0.123; G25A G52C: 0.174. Next, C18G C48U: 0; A16G G54A: 0.727; C3G A71G: 0.631. The result for U20G C84G reads 0.119. Regarding A78G C86G, the self-cleavage stood at 0.806. Take U23C A77U: the self-cleavage stood at 0.353. The result for C48U U72A reads 0.855; that for C4A C61G, 0.193; that for U9G U65G, 0.782. The result for G29U G74A reads 0.0978; that for A42G C84U, 0.525; that for C18U G67C, 0.436. U12C A43C: the self-cleavage turned out to be 0.0831. The result for C57U C63G reads 1.12.

For U23C U37C, the self-cleavage is 1.15. Take G35C A42G: the self-cleavage worked out at 0.192. Next, G34C C48U: 0.17. Take U60C G74C: the self-cleavage stood at 0.217. Next, G54C G76A: 1.1; A43U G68U: 0.299. Next, C14U U79C: 0.259. On to C36U A78G, for which the self-cleavage is 0.128. The result for C15G G59U reads 0.375; that for C3U C24G, 0.0782. The result for C15U C36U reads 0.886. Next, G1A U12C: 0; G5A C24G: 0. On to C49A A71U, for which the self-cleavage amounted to 0.849. G1U G40C: the self-cleavage stood at 0.491. The result for C24A G35C reads 0.0692.

Consider G17U G25A, for which the self-cleavage amounted to 0.0489. Next, G17U C18G: 0.095; U65C A71G: 0.935. In the case of G1A C24G, the self-cleavage was found to be 0.0702. The result for C13G G40C reads 0.0396; that for C57G C64G, 0.849.

Regarding G6A A87G, the self-cleavage turned out to be 0.654.

For the variant A42U G81C, the self-cleavage stood at 0.0426. On to C18G C26U, for which the self-cleavage worked out at 0.388. The result for C63G G76U reads 0.978.

Take C75U C85A: the self-cleavage came out at 0.0959. In the case of G29A G34A, the self-cleavage is 0.131. Next, C15G U72A: 0.0875; G11U U23A: 0.437. The result for C30G G80C reads 0.0462; that for G28A G82C, 0.0959.

Take G50A A51G: the self-cleavage was 1.03. The result for G29C C75G reads 0.131; that for G52C C62U, 0.987. C4A G38C: the self-cleavage came out at 0. The result for G31A C64U reads 0.409; that for C44U C62U, 0.443.

Take U20C U47G: the self-cleavage was determined as 0.

A16G G76C: the self-cleavage turned out to be 1.12. Turning to U23C, the self-cleavage came out at 0.987. The result for G52A G81U reads 0.244; that for C26G G59U, 0.831. The result for G5A G50U reads 0.143; that for G5A A51C, 0.312; that for A43C G53U, 0.425. The result for C66U A71U reads 0.936. In the case of A45U C64G, the self-cleavage came to 0.671.

In the case of G28U G35A, the self-cleavage is 0.0213. The result for G38A A77U reads 0.0845; that for U12G U27C, 0.776. Next, C22U G74U: 0.0683; A70C C84G: 0.323; G29A G53A: 0.217.

On to U23G G68U, for which the self-cleavage was 0.969. The result for G10U C63G reads 0.798.

With U79C G82C, the self-cleavage is 0.222. Next, A51C A70G: 0.849; G28U C62G: 0.0415; G59U A87C: 1.17.

In the case of C24A G34A, the self-cleavage turned out to be 0.166. Next, A45U G55U: 0.698; C13A G54U: 0.188; G10U G81U: 0.0791. The result for C58G A87C reads 0.919. The result for C58G C75G reads 0.415; that for C33U G40U, 0.78; that for U12C C63A, 0.268.

Regarding G5C U47A, the self-cleavage came out at 0.158. The result for C33G A51U reads 0.0811; that for C7A U79G, 0.192. Next, G50U G67U: 1.02; C36U C86A: 0.747; U12A C57G: 0.208. With C15U U27C, the self-cleavage is 0.712.

Consider C57A A78G, for which the self-cleavage worked out at 0.63. The result for U20C G28U reads 0.119; that for G35U G52C, 0.366; that for U20A G35U, 0.0437. As for C84U A87G, the self-cleavage stood at 0.437. G17C C21U: the self-cleavage was determined as 0.0923.

The values above are taken from the RNAGym collection of RNA variant scans (doi:10.7554/elife.80360).
